Numbered stars: 1 amine (or outer) side, 2 acyl side, 3 side chain; on linkers, the order of the positions; unused ones are H or OH. Bridge positions count the residues as written; N and C are the ends. Side chains are listed from the residue outwards. Ends that are not written are not given here. * marks the point of attachment. C20 diacid = O=C(O)CCCCCCCCCCCCCCCCCCC(=O)*; γGlu = O=C(O)[C@H](CCC(=O)[*:2])N[*:1]; AEEA = NCCOCCOCC(=O)O
T1: human calcitonin receptor (human, UniProt P30988 25-474)
T1 construct: whole, on cells; Membranes of a BHK tk'ts 13 cell line stably transfected with the human calcitonin receptor; also called hCTR; hCT
T1 sequence (looked up): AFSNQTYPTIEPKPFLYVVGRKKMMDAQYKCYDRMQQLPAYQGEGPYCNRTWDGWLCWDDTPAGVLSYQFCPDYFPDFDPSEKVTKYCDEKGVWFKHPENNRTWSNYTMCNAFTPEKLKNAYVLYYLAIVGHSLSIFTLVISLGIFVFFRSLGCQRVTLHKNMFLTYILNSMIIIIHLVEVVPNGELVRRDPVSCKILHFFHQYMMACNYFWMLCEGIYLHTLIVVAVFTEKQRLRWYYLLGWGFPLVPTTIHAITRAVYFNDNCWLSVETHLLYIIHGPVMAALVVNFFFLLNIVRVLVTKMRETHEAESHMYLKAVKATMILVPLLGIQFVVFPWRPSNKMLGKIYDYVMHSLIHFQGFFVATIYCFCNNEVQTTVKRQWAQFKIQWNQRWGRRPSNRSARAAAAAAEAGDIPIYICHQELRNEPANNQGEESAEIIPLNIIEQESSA

T2: rat calcitonin receptor (rat, UniProt P32214 25-516)
T2 construct: whole, on cells; Membranes of BHK tk'ts 13 cells transiently transfected with the rat calcitonin receptor; also called rCTR; rat calcitonin (a) receptor
T2 sequence (looked up): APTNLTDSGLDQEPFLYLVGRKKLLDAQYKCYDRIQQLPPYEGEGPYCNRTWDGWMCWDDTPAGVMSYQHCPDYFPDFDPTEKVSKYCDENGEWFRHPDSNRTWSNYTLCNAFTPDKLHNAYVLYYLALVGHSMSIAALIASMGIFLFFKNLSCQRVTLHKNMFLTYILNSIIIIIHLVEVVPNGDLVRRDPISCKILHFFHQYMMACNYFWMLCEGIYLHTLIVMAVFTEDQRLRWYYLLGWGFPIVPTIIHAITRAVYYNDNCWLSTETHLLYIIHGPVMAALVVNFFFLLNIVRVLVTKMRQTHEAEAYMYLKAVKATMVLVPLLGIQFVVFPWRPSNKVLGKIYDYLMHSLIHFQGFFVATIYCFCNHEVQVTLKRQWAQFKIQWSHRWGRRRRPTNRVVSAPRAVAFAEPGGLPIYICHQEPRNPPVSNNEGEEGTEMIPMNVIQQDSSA

T3: rat calcitonin receptor (rat, UniProt P32214 25-516)
T3 construct: whole, on cells; Membranes prepared from transiently transfected BHK tk'ts 13 cells; also called rCTR; rat calcitonin (a) receptor
T3 sequence (looked up): T2 sequence (looked up)

T4: rat amylin receptor (rat calcitonin receptor + rat RAMP 3) (rat, UniProt P32214 25-516; Q9JJ73 23-147)
T4 construct: whole, on cells; Membranes of BHK tk'ts 13 cells transiently transfected with the rat calcitonin receptor and rat RAMP 3; also called rAmylin-R; rat amylin 3(a) receptor
T4 sequence (looked up) 1: T2 sequence (looked up)
T4 sequence (looked up) 2: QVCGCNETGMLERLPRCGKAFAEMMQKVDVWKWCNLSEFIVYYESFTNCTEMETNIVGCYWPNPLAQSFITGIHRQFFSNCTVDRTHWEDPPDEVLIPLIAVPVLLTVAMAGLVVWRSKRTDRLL

B1: N^-1-[(4S)-4-carboxy-4-(19-carboxynonadecanoylamino)butanoyl]-Gly[Arg1,Arg17,Pro21,Pro27,His35]-h-amylin (peptide)
peptide: {C20 diacid-γGlu}-GRCNTATCATQRLANFLRHSSPNFGAIPSSTNVGSHTY-NH2
modifications: disulfide 3-8
SMILES: CC[C@H](C)[C@H](NC(=O)[C@H](C)NC(=O)CNC(=O)[C@H](Cc1ccccc1)NC(=O)[C@H](CC(N)=O)NC(=O)[C@@H]1CCCN1C(=O)[C@H](CO)NC(=O)[C@H](CO)NC(=O)[C@H](Cc1c[nH]cn1)NC(=O)[C@H](CCCNC(=N)N)NC(=O)[C@H](CC(C)C)NC(=O)[C@H](Cc1ccccc1)NC(=O)[C@H](CC(N)=O)NC(=O)[C@H](C)NC(=O)[C@H](CC(C)C)NC(=O)[C@H](CCCNC(=N)N)NC(=O)[C@H](CCC(N)=O)NC(=O)[C@@H](NC(=O)[C@H](C)NC(=O)[C@@H]1CSSC[C@H](NC(=O)[C@H](CCCNC(=N)N)NC(=O)CNC(=O)CC[C@H](NC(=O)CCCCCCCCCCCCCCCCCCC(=O)O)C(=O)O)C(=O)N[C@@H](CC(N)=O)C(=O)N[C@@H]([C@@H](C)O)C(=O)N[C@@H](C)C(=O)N[C@@H]([C@@H](C)O)C(=O)N1)[C@@H](C)O)C(=O)N1CCC[C@H]1C(=O)N[C@@H](CO)C(=O)N[C@@H](CO)C(=O)N[C@H](C(=O)N[C@@H](CC(N)=O)C(=O)N[C@H](C(=O)NCC(=O)N[C@@H](CO)C(=O)N[C@@H](Cc1c[nH]cn1)C(=O)N[C@H](C(=O)N[C@@H](Cc1ccc(O)cc1)C(N)=O)[C@@H](C)O)C(C)C)[C@@H](C)O
notes: modifications are with respect to human amylin; also called compound 47
B2: N^-1-[(4S)-4-carboxy-4-(19-carboxynonadecanoylamino)butanoyl]-Gly[Arg1,Arg17,Pro21,Pro27]-h-amylin (peptide)
peptide: {C20 diacid-γGlu}-GRCNTATCATQRLANFLRHSSPNFGAIPSSTNVGSNTY-NH2
modifications: disulfide 3-8
SMILES: CC[C@H](C)[C@H](NC(=O)[C@H](C)NC(=O)CNC(=O)[C@H](Cc1ccccc1)NC(=O)[C@H](CC(N)=O)NC(=O)[C@@H]1CCCN1C(=O)[C@H](CO)NC(=O)[C@H](CO)NC(=O)[C@H](Cc1c[nH]cn1)NC(=O)[C@H](CCCNC(=N)N)NC(=O)[C@H](CC(C)C)NC(=O)[C@H](Cc1ccccc1)NC(=O)[C@H](CC(N)=O)NC(=O)[C@H](C)NC(=O)[C@H](CC(C)C)NC(=O)[C@H](CCCNC(=N)N)NC(=O)[C@H](CCC(N)=O)NC(=O)[C@@H](NC(=O)[C@H](C)NC(=O)[C@@H]1CSSC[C@H](NC(=O)[C@H](CCCNC(=N)N)NC(=O)CNC(=O)CC[C@H](NC(=O)CCCCCCCCCCCCCCCCCCC(=O)O)C(=O)O)C(=O)N[C@@H](CC(N)=O)C(=O)N[C@@H]([C@@H](C)O)C(=O)N[C@@H](C)C(=O)N[C@@H]([C@@H](C)O)C(=O)N1)[C@@H](C)O)C(=O)N1CCC[C@H]1C(=O)N[C@@H](CO)C(=O)N[C@@H](CO)C(=O)N[C@H](C(=O)N[C@@H](CC(N)=O)C(=O)N[C@H](C(=O)NCC(=O)N[C@@H](CO)C(=O)N[C@@H](CC(N)=O)C(=O)N[C@H](C(=O)N[C@@H](Cc1ccc(O)cc1)C(N)=O)[C@@H](C)O)C(C)C)[C@@H](C)O
notes: modifications are with respect to human amylin; also called compound 46
B3: N^ε-[2-[2-[2-[[(4S)-4-carboxy-4-(19-carboxynonadecanoylamino)butanoyl]amino]ethoxy]ethoxy]acetyl]Lys[Arg1,Arg17,Pro21,Pro27,His35]-h-amylin (peptide)
peptide: K([AEEA-γGlu-C20 diacid])RCNTATCATQRLANFLRHSSPNFGAIPSSTNVGSHTY-NH2
modifications: disulfide 3-8; N-terminus assumed
SMILES: CC[C@H](C)[C@H](NC(=O)[C@H](C)NC(=O)CNC(=O)[C@H](Cc1ccccc1)NC(=O)[C@H](CC(N)=O)NC(=O)[C@@H]1CCCN1C(=O)[C@H](CO)NC(=O)[C@H](CO)NC(=O)[C@H](Cc1c[nH]cn1)NC(=O)[C@H](CCCNC(=N)N)NC(=O)[C@H](CC(C)C)NC(=O)[C@H](Cc1ccccc1)NC(=O)[C@H](CC(N)=O)NC(=O)[C@H](C)NC(=O)[C@H](CC(C)C)NC(=O)[C@H](CCCNC(=N)N)NC(=O)[C@H](CCC(N)=O)NC(=O)[C@@H](NC(=O)[C@H](C)NC(=O)[C@@H]1CSSC[C@H](NC(=O)[C@H](CCCNC(=N)N)NC(=O)[C@@H](N)CCCCNC(=O)COCCOCCNC(=O)CC[C@H](NC(=O)CCCCCCCCCCCCCCCCCCC(=O)O)C(=O)O)C(=O)N[C@@H](CC(N)=O)C(=O)N[C@@H]([C@@H](C)O)C(=O)N[C@@H](C)C(=O)N[C@@H]([C@@H](C)O)C(=O)N1)[C@@H](C)O)C(=O)N1CCC[C@H]1C(=O)N[C@@H](CO)C(=O)N[C@@H](CO)C(=O)N[C@H](C(=O)N[C@@H](CC(N)=O)C(=O)N[C@H](C(=O)NCC(=O)N[C@@H](CO)C(=O)N[C@@H](Cc1c[nH]cn1)C(=O)N[C@H](C(=O)N[C@@H](Cc1ccc(O)cc1)C(N)=O)[C@@H](C)O)C(C)C)[C@@H](C)O
notes: modifications are with respect to human amylin; also called compound 45
B4: N^ε1-[(4S)-4-carboxy-4-(19-carboxynonadecanoylamino)butanoyl]-[Arg17,Pro21,Pro27]-h-amylin (peptide)
peptide: K([γGlu-C20 diacid])CNTATCATQRLANFLRHSSPNFGAIPSSTNVGSNTY-NH2
modifications: disulfide 2-7; N-terminus assumed
SMILES: CC[C@H](C)[C@H](NC(=O)[C@H](C)NC(=O)CNC(=O)[C@H](Cc1ccccc1)NC(=O)[C@H](CC(N)=O)NC(=O)[C@@H]1CCCN1C(=O)[C@H](CO)NC(=O)[C@H](CO)NC(=O)[C@H](Cc1c[nH]cn1)NC(=O)[C@H](CCCNC(=N)N)NC(=O)[C@H](CC(C)C)NC(=O)[C@H](Cc1ccccc1)NC(=O)[C@H](CC(N)=O)NC(=O)[C@H](C)NC(=O)[C@H](CC(C)C)NC(=O)[C@H](CCCNC(=N)N)NC(=O)[C@H](CCC(N)=O)NC(=O)[C@@H](NC(=O)[C@H](C)NC(=O)[C@@H]1CSSC[C@H](NC(=O)[C@@H](N)CCCCNC(=O)CC[C@H](NC(=O)CCCCCCCCCCCCCCCCCCC(=O)O)C(=O)O)C(=O)N[C@@H](CC(N)=O)C(=O)N[C@@H]([C@@H](C)O)C(=O)N[C@@H](C)C(=O)N[C@@H]([C@@H](C)O)C(=O)N1)[C@@H](C)O)C(=O)N1CCC[C@H]1C(=O)N[C@@H](CO)C(=O)N[C@@H](CO)C(=O)N[C@H](C(=O)N[C@@H](CC(N)=O)C(=O)N[C@H](C(=O)NCC(=O)N[C@@H](CO)C(=O)N[C@@H](CC(N)=O)C(=O)N[C@H](C(=O)N[C@@H](Cc1ccc(O)cc1)C(N)=O)[C@@H](C)O)C(C)C)[C@@H](C)O
notes: modifications are with respect to human amylin; also called compound 48
B5: [Asp14,Arg17,Pro21,Pro27,Arg35]-h-amylin (peptide)
peptide: KCNTATCATQRLADFLRHSSPNFGAIPSSTNVGSRTY-NH2
modifications: disulfide 2-7
notes: Not acylated

What follows are binders tested against T1, human calcitonin receptor (assay: IC50 at hCTR divided by IC50 at hAmylin-R (reference)).
Summary of the method: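 Competition binding by SPA uses membrane preparations (35 ng/μL final) in pH 7.4 Hepes buffer with 1 mM CaCl2 and 5 mM MgCl₂. Incubation lasts 120 min at 25° C, and IC₅₀ comes from one-site fitting.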
For B1, the “Ratio hCT/hAmylin binding” value was 44.9.
For B2, the “Ratio hCT/hAmylin binding” value was 48.9.
In the case of B3, the “Ratio hCT/hAmylin binding” value is reported as 26.8.
B4 was tested, and the “Ratio hCT/hAmylin binding” value was 69.7.

Each binder was assayed against T2, rat calcitonin receptor (assay: IC50 at rCTR divided by IC50 at rAmylin-R (reference)).
With B1 the “Ratio rCT/rAmylin binding” value was 84.3.
With B2 the “Ratio rCT/rAmylin binding” value was 142.
For B3, the “Ratio rCT/rAmylin binding” value was 67.1.
In the case of B4, the “Ratio rCT/rAmylin binding” value is reported as 201.

The binders below were run against T3, rat calcitonin receptor (assay: SPA competition vs 125I-calcitonin, membranes (Assay VIII)).
B5 gave an IC50 of 30.9 nM.

Each binder was assayed against T2, rat calcitonin receptor (assay: SPA competition vs 125I-calcitonin, membranes with rat CTR (Assay VIII)).
B1 was tested, and the IC50 was 17.1 nM.
For B2, the IC50 was 46.8 nM.
B3 gave an IC50 of 41.8 nM.
With B4 the IC50 was 112 nM.

Each binder was assayed against T4, rat amylin receptor (rat calcitonin …) (assay: SPA competition vs 125I-rat amylin, membranes with rat CTR + rat RAMP3 (Assay VI)).
B1 showed an IC50 of 0.203 nM.
In the case of B2, the IC50 is reported as 0.33 nM.
In the case of B3, the IC50 is reported as 0.623 nM.
In the case of B4, the IC50 is reported as 0.558 nM.

— US20140087995A1 (published 2014)
